These results are taken from patent US20030031673A1 (published 2003).

For the assay, the target named is T1, prostate specific membrane antigen (human, UniProt Q04609 1-750).
T1 construct: whole, on cells; also called PSMA
Kind of assay: Western blot, prostatic (seminal) fluid. On the procedure: To confirm that antibodies E99, J415, J533, and J591 precipitate an identical band to the 7Ell antibody (i.e., PSMA), Western Blot analyses were performed. Seminal plasma (400 μg/lane) or LNCaP lysate were loaded into lanes of 12% SDS-PAGE gels. After electrophoresis, the gels are transferred to nitrocellulose membranes. The membranes were blocked with 5% dry milk/Tris-buffered saline-tween 20 (“TBST”) for 60 min at room temperature. After washing, the membranes were incubated with primary mAb for 60 min at room temperature. After repeat washing, the membranes were incubated with sheep anti-mouse-Ig-peroxidase 1/5000 in 5% dry milk/TEST for 60 min at room temperature. After repeat washing, the membranes were developed using a chemiluminescent tag designated “ECL” (Amersham Life Sciences, International, Arlington Heights, Ill.) according to the manufacturer's directions.
Background: A western blot detects proteins with antibodies after separation by electrophoresis.

T1 sequence (Q04609 whole entry): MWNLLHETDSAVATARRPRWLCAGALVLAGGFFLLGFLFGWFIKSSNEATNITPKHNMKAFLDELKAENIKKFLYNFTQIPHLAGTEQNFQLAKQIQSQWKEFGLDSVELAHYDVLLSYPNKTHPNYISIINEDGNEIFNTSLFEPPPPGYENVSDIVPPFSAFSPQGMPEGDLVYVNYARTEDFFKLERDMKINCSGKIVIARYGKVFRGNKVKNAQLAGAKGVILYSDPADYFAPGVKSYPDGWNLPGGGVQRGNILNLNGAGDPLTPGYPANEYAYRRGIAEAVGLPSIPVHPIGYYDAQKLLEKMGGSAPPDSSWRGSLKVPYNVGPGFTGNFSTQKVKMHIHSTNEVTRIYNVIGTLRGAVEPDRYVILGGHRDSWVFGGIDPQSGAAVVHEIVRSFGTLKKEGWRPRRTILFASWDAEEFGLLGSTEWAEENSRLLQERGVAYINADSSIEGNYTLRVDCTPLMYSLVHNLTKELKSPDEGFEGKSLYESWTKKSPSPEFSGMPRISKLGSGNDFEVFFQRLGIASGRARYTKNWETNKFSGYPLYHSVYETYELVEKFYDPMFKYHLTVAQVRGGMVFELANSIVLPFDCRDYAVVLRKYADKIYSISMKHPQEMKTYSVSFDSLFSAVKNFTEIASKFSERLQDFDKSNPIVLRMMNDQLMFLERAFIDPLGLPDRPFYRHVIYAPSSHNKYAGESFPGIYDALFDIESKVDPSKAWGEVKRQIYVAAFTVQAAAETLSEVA

B1: monoclonal antibody J591 (antibody, V domains shown)
VH: EVQLQQSGPELVKPGTSVRISCKTSGYTFTEYTIHWVKQSHGKSLEWIGNINPNNGGTTYNQKFEDKATLTVDKSSSTAYMELRSLTSEDSAVYYCAAGWNFDYWGQGTTLTVSS
VL: DIVMTQSHKFMSTSVGDRVSIICKASQDVGTAVDWYQQKPGQSPKLLIYWASTRHTGVPDRFTGSGSGTDFTLTITNVQSEDLADYFCQQYNSYPLTFGAGTMLDLK
notes: Gold-labeled in the electron microscopy; also called mAb J591; hybridoma ATCC HB-12126
As for B1, the binding result is “binds”.
